Reference: patent US20260242478A1 (published 2026)
Where no end group is shown, it is not given here.

B1: Phage-1282 (peptide)
peptide: YCQGHALQYLQKCL
modifications: cysteine pairing not given here; also: fused to phage pIII protein, pIII and linker sequence not given here
notes: Peptide-87 library clone on clonal phage (crude supernatant); not shown: fused to the pIII filament protein of the bacteriophage
B2: Phage-1284 (peptide)
peptide: YCEGHLPWYMSKCL
modifications: cysteine pairing not given here; also: fused to phage pIII protein, pIII and linker sequence not given here
notes: as for B1
B3: Phage-1122 (peptide)
peptide: YCDGHLEVYMDKCL
notes: Peptide-87 library clone, tested as clonal phage (peptide fused to pIII of the bacteriophage)
B4: Phage-1127 (peptide)
peptide: YCEGHQPAYMEKCL
notes: as for B3
B5: Phage-1281 (peptide)
peptide: YCAGHMPQYMSKCL
modifications: cysteine pairing not given here; also: fused to phage pIII protein, pIII and linker sequence not given here
notes: as for B1
B6: Phage-1274 (peptide)
peptide: YCDGHTGVYKWKCI
modifications: cysteine pairing not given here; also: fused to phage pIII protein, pIII and linker sequence not given here
notes: as for B1
B7: Phage-1278 (peptide)
peptide: YCEGHAQQYMLKCL
modifications: cysteine pairing not given here; also: fused to phage pIII protein, pIII and linker sequence not given here
notes: as for B1
B8: Phage-1125 (peptide)
peptide: YCEGHFPLYMNKCL
notes: as for B3
B9: Phage-1118 (peptide)
peptide: YCDGHRAEYMLKCL
notes: as for B3
B10: Phage-1279 (peptide)
peptide: YCAGHSVQYMYKCL
modifications: cysteine pairing not given here; also: fused to phage pIII protein, pIII and linker sequence not given here
notes: as for B1
B11: Phage-1285 (peptide)
peptide: YCDGHHLEYIDKCL
modifications: cysteine pairing not given here; also: fused to phage pIII protein, pIII and linker sequence not given here
notes: as for B1
B12: Phage-1117 (peptide)
peptide: YCAGHMPIYMTKCL
notes: as for B3
B13: Phage-1277 (peptide)
peptide: YCDGHNPVYLAKCL
modifications: cysteine pairing not given here; also: fused to phage pIII protein, pIII and linker sequence not given here
notes: as for B1
B14: Phage-1120 (peptide)
peptide: YCMGHLPIYMEKCL
notes: as for B3
B15: Phage-1126 (peptide)
peptide: YCEGHSTEYMAKCL
notes: as for B3
B16: Phage-1280 (peptide)
peptide: YCEGHFGMYMSKCL
modifications: cysteine pairing not given here; also: fused to phage pIII protein, pIII and linker sequence not given here
notes: as for B1
B17: Phage-1129 (peptide)
peptide: YCDGHLPVYMTKCL
notes: as for B3
B18: Phage-1124 (peptide)
peptide: YCEGHSSQWMWKCL
notes: as for B3
B19: Phage-1116 (peptide)
peptide: YCQGHSVEHMAKCL
notes: as for B3
B20: Phage-1121 (peptide)
peptide: YCEGHLPRYMLKCL
notes: as for B3
B21: Phage-1128 (peptide)
peptide: YCDGHAEEYRMKCL
notes: as for B3
B22: Phage-1283 (peptide)
peptide: YCAGHLPQYVSKCL
modifications: cysteine pairing not given here; also: fused to phage pIII protein, pIII and linker sequence not given here
notes: as for B1
B23: Phage-1273 (peptide)
peptide: YCEGHSSEYMVKCL
modifications: cysteine pairing not given here; also: displayed on phage by fusion to pIII, linker and pIII sequence not given here
notes: as for B1
B24: Phage-1119 (peptide)
peptide: YCEGHLVQYMQKCL
notes: as for B3
B25: Phage-1286 (peptide)
peptide: YCDGHLPRFMVKCL
modifications: cysteine pairing not given here; also: fused to phage pIII protein, pIII and linker sequence not given here
notes: as for B1
B26: Phage-1276 (peptide)
peptide: YCDGHAGIYVLKCL
modifications: cysteine pairing not given here; also: fused to phage pIII protein, pIII and linker sequence not given here
notes: as for B1
B27: Phage-1123 (peptide)
peptide: YCDGHSPAYLQKCL
notes: as for B3
B28: Phage-1275 (peptide)
peptide: YCAGHIGEYMDKCL
modifications: cysteine pairing not given here; also: fused to phage pIII protein, pIII and linker sequence not given here
notes: as for B1

Assays:
[1] = target: T1, Anti-CD28 Fab (SEQ ID NOs: 696, 697); assay: phage ELISA; Fab on plate pre-incubated with CD28 antigen as competitor, anti-M13 HRP detection
T1 construct: Used biotinylated and captured on neutravidin coated plates in the phage ELISA
T1 sequence (VH, as listed by the source, chain 1 of 2): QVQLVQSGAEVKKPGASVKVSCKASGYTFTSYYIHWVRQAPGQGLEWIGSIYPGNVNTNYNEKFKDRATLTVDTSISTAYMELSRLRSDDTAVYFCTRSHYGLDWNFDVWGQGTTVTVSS
T1 sequence (VL, as listed by the source, chain 2 of 2): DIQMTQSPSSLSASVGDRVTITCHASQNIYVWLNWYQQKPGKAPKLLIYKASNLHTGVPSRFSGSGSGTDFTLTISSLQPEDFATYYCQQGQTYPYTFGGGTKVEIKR
Experimental: (§1) After panning, phage infected bacteria were plated out and colonies picked into 96 well blocks. Clonal phage was then amplified and separated from bacterial cells via centrifugation.
(§2) Clonal phage were harvested as crude supematants and screened via standard ELISAs. […] Prior to the addition of clonal phage, wells were incubated with blocking buffer and CD28 antigen or blocking buffer alone. Without washing or aspirating, clonal phage supematants were then added to the wells and incubated for a short time. Wells were then washed followed by detection of bound phage using a horse radish conjugated anti-M13 antibody. Clonal phage of interest were then sent for sequence analysis.

[2] = target: T1, Anti-CD28 Fab (SEQ ID NOs: 696, 697); assay: phage ELISA; biotinylated Fab on neutravidin plate, clonal phage supernatant, anti-M13 HRP detection
Experimental: as §1, §2

[3] = target: Anti-CD28 Fab (SEQ ID NOs: 696, 697); assay: phage ELISA on captured anti-CD28 Fab, wells pre-incubated with CD28 antigen as competitor;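 further: crude clonal phage supernatants added without washing, bound phage read out by HRP-coupled anti-M13 antibody, reference wells given blocking buffer only instead of CD28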
Target sequence in this assay (VH, as listed by the source, chain 1 of 2): as the sequence (VH, as listed by the source, chain 1 of 2) above
Target sequence in this assay (VL, as listed by the source, chain 2 of 2): as the sequence (VL, as listed by the source, chain 2 of 2) above
Experimental: as §1, §2

[4] = target: Anti-CD28 Fab (SEQ ID NOs: 696, 697); assay: phage ELISA, clonal phage supernatant on biotinylated anti-CD28 Fab captured on neutravidin plates
Target sequence in this assay (VH, as listed by the source, chain 1 of 2): as the sequence (VH, as listed by the source, chain 1 of 2) above
Target sequence in this assay (VL, as listed by the source, chain 2 of 2): as the sequence (VL, as listed by the source, chain 2 of 2) above
Experimental: as §1, §2

[5] = target: Anti-CD28 Fab (SEQ ID NOs: 696, 697); assay: phage binding ELISA; biotinylated anti-CD28 Fab on neutravidin plate, clonal phage supernatant, anti-M13 HRP detection;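 further: wells pretreated with blocking buffer, either plus or minus CD28 antigen, then given crude phage supernatant briefly without washing in between, then washed before anti-M13 HRP readout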
Target sequence in this assay (VH, as listed by the source, chain 1 of 2): as the sequence (VH, as listed by the source, chain 1 of 2) above
Target sequence in this assay (VL, as listed by the source, chain 2 of 2): as the sequence (VL, as listed by the source, chain 2 of 2) above
Experimental: Clonal phage were harvested as crude supematants and screened via standard ELISAs. […] Prior to the addition of clonal phage, wells were incubated with blocking buffer and CD28 antigen or blocking buffer alone. Without washing or aspirating, clonal phage supematants were then added to the wells and incubated for a short time. Wells were then washed followed by detection of bound phage using a horse radish conjugated anti-M13 antibody.

[6] = target: Anti-CD28 Fab (SEQ ID NOs: 696, 697); assay: phage binding ELISA; Fab-coated wells pre-incubated with CD28 antigen as competitor, anti-M13 HRP detection;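 further: crude clonal phage supernatants added without washing after the CD28 pre-incubation, with wells given blocking buffer only (no CD28) as the reference, bound phage read after washing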
Target sequence in this assay (VH, as listed by the source, chain 1 of 2): as the sequence (VH, as listed by the source, chain 1 of 2) above
Target sequence in this assay (VL, as listed by the source, chain 2 of 2): as the sequence (VL, as listed by the source, chain 2 of 2) above
Experimental: as §2

Row | Binder | Phage binding ELISA, Anti-CD28 Fab signal in the presence of CD28 [1] | Phage binding ELISA, Anti-CD28 Fab (SEQ ID NOs: 696, 697) signal [2] | Anti-CD28 Fab signal in the presence of CD28 (phage binding ELISA) [3] | Anti-CD28 Fab signal (phage binding ELISA) [4] | also measured
1 | B1 | 0.08 | 0.71 | – | – | –
2 | B2 | 0.09 | 0.69 | – | – | –
3 | B3 | – | – | 0.07 | 1.28 | –
4 | B4 | – | – | 0.06 | 1.27 | –
5 | TCSAGASYPWPLCL [Phage-1363 peptide (Peptide-92 library sequence, SEQ ID NO: 1659)] | – | – | – | – | Anti-CD28 Fab (SEQ ID NOs: 696, 697) signal [5]: 2.29; Anti-CD28 Fab signal in the presence of CD28 [6]: 0.08
6 | B5 | 0.05 | 0.72 | – | – | –
7 | B6 | 0.06 | 0.76 | – | – | –
8 | B7 | 0.05 | 0.74 | – | – | –
9 | TCSAGATYAWPFCL [Phage-1360 peptide (Peptide-92 library sequence, SEQ ID NO: 1656)] | – | – | – | – | Anti-CD28 Fab (SEQ ID NOs: 696, 697) signal [5]: 2.31; Anti-CD28 Fab signal in the presence of CD28 [6]: 0.06
10 | B8 | – | – | 0.08 | 1.27 | –
11 | MCAAGATYPWPACL (cysteine pairing not given here; also: fused to phage pIII protein) [Phage-1361 peptide (Peptide-92 library sequence, SEQ ID NO: 1657)] | – | – | – | – | Anti-CD28 Fab (SEQ ID NOs: 696, 697) signal [5]: 2.3; Anti-CD28 Fab signal in the presence of CD28 [6]: 0.06
12 | B9 | – | – | 0.08 | 1.29 | –
13 | SCKPGVANYWPWCL [Phage-1364 peptide (Peptide-92 library sequence, SEQ ID NO: 1660)] | – | – | – | – | Anti-CD28 Fab (SEQ ID NOs: 696, 697) signal [5]: 2.29; Anti-CD28 Fab signal in the presence of CD28 [6]: 0.1
14 | MCSAGAMYSWPLCL [Phage-1365 peptide (Peptide-92 library sequence, SEQ ID NO: 1661)] | – | – | – | – | Anti-CD28 Fab (SEQ ID NOs: 696, 697) signal [5]: 2.29; Anti-CD28 Fab signal in the presence of CD28 [6]: 0.08
15 | B10 | 0.06 | 0.74 | – | – | –
16 | B11 | 0.06 | 0.69 | – | – | –
17 | B12 | – | – | 0.08 | 1.3 | –

Row | Binder | Phage binding ELISA, Anti-CD28 Fab signal in the presence of CD28 [1] | Phage binding ELISA, Anti-CD28 Fab (SEQ ID NOs: 696, 697) signal [2] | Anti-CD28 Fab signal in the presence of CD28 (phage binding ELISA) [3] | Anti-CD28 Fab signal (phage binding ELISA) [4] | also measured
18 | SCAAGAMWPWPVCV [Phage-1362 peptide (Peptide-92 library sequence, SEQ ID NO: 1658)] | – | – | – | – | Anti-CD28 Fab (SEQ ID NOs: 696, 697) signal [5]: 2.29; Anti-CD28 Fab signal in the presence of CD28 [6]: 0.13
19 | B13 | 0.08 | 0.74 | – | – | –
20 | B14 | – | – | 0.05 | 1.28 | –
21 | B15 | – | – | 0.06 | 1.27 | –
22 | B16 | 0.07 | 0.73 | – | – | –
23 | B17 | – | – | 0.07 | 1.27 | –
24 | B18 | – | – | 0.09 | 1.27 | –
25 | B19 | – | – | 0.06 | 1.3 | –
26 | B20 | – | – | 0.3 | 1.28 | –
27 | B21 | – | – | 0.08 | 1.27 | –
28 | B22 | 0.06 | 0.7 | – | – | –
29 | B23 | 0.06 | 0.77 | – | – | –
30 | B24 | – | – | 0.06 | 1.28 | –
31 | B25 | 0.07 | 0.69 | – | – | –
32 | B26 | 0.08 | 0.75 | – | – | –
33 | B27 | – | – | 0.06 | 1.28 | –
34 | B28 | 0.58 | 0.75 | – | – | –
